Among the data in US20170114412A1 are percentage of CD16/7-NCD clustered HEK cells with F-actin tails (control medium without Slit2: ~80%) values, retold here.

In this experiment the target is Robo2, human, full-length, non-tagged (human) (UniProt Q9HCK4). Briefly: cell-based or functional assay.
Chain of Robo2, human, full-length, non-tagged (human) (Q9HCK4 22-1378 limits assumed, form in doubt): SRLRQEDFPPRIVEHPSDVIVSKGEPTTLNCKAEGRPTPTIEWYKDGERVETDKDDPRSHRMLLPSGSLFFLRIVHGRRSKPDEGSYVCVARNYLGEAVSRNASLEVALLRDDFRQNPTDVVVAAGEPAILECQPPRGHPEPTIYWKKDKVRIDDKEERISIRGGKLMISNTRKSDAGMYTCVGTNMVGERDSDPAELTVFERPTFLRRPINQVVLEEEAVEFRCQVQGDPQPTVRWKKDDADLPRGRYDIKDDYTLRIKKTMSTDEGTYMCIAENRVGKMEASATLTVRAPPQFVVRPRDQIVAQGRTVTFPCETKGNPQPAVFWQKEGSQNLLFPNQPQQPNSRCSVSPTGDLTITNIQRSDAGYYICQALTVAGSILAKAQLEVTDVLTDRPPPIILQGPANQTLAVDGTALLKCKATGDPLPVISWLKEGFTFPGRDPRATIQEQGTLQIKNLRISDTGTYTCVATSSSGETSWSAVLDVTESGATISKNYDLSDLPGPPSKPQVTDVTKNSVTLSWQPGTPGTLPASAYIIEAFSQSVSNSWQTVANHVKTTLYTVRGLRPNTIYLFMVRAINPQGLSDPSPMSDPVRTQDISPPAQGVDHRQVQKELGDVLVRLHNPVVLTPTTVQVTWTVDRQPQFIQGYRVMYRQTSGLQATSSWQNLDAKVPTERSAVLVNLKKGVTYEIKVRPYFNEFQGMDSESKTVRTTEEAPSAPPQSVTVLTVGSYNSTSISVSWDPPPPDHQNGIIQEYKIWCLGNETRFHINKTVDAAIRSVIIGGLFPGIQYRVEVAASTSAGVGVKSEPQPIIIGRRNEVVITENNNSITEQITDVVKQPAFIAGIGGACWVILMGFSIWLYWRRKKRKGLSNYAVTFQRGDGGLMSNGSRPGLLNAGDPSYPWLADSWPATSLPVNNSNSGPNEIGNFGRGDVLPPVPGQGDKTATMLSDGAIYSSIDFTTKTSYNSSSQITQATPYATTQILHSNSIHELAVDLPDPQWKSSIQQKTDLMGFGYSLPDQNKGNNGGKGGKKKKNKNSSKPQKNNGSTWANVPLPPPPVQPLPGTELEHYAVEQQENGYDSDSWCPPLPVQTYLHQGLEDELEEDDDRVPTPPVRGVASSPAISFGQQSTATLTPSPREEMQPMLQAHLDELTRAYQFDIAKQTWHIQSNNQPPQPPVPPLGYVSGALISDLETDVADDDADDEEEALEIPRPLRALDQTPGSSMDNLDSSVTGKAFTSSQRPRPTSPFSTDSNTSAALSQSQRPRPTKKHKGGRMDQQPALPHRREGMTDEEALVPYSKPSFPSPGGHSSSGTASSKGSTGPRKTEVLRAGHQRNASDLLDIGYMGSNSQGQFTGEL

With “Slit2 (myc-tagged), in conditioned medium of stably transfected cells (ligand)”, the percentage of CD16/7-NCD clustered HEK cells with F-actin tails (control medium without Slit2: ~80%) is 40%.
